Measurements from patent US5622933A, “Multiple branch peptide constructions for use against HIV” (priority 1993, dated 1997).
Several values for one entry are separate records, joined by “and”; a condition that tells them apart may be missing. Equal entries are not always repeated.

What was measured:
C57/BL6 black mice = experiment: Immunogenicity in mice (serum ELISA for anti-MBPC3 antibody); assay type: in vivo, mouse; conditions: plate 4
Description: The injection route was intraperitoneal. The blood samples were collected by sub-orbital eye punction. The blood samples were left for 1 hour at 37° C., then overnight at 4° C., and the supernatants (serum samples) thus obtained were separated from the pellets. Sera were tested by ELISA, looking for specific anti-MBPC3 antibody.
(§1) […] After saturation with 400 μL of casein (5 g/100 ml), different serum dilutions were added for 2 hours at 37° C. The controls were sera from non-immunized rabbits and mice. After rinsing (5×), 50 μl of 1:5000 of peroxidase-labeled swine anti-rabbit IgG or anti-mouse IgG (Dakopatts, Copenhagen, Denmark) were added for 1 hour at 37° C. After further rinsing (5×), 100 μl of ortho-phenylenediamine were added for 30 min in the dark at room temperature. The reaction was stopped by adding 50 μl of 4N sulfuric acid, and optical density (OD) ratios were determined at 492/620 nm.

New Zealand rabbits = experiment: Immunogenicity in rabbits (serum ELISA for anti MBPC.3 antibodies); assay type: in vivo, rabbit
Description: […] This procedure was repeated subcutaneously with incomplete Freud's adjuvant on days 30, 60, 90 and 120. Sera were tested by ELISA, looking for specific anti MBPC.3 antibodies. Data presented here is from the last serum samples (120+7 days).
as §1

In the case of (GPGRAF)8 -(K)4 -(K)2 -K-βA-OH [MBPC.3], the “optical density (OD) ratio 492/620 nm (×10^3)” value (C57/BL6 black mice; mouse serum 10^-3, coat 10 μg MBPC.3/ml) was 334 and 318, the “optical density (OD) ratio 492/620 nm (×10^3)” value (C57/BL6 black mice; mouse serum 10^-4, coat 0.5 μg MBPC.3/ml) was 28 and the “optical density (OD) ratio 492/620 nm (×10^3)” value (C57/BL6 black mice; mouse serum 10^-4, coat 1 μg MBPC.3/ml) was 27 and 21. For the same substance, the “optical density (OD) ratio 492/620 nm (×10^3)” value (C57/BL6 black mice; mouse serum 10^-4, coat 5 μg MBPC.3/ml) was 124 and 103, the “optical density (OD) ratio 492/620 nm (×10^3)” value (C57/BL6 black mice; mouse serum 10^-4, coat 10 μg MBPC.3/ml) was 133 and 113 and the “optical density (OD) ratio 492/620 nm (×10^3)” value (New Zealand rabbits; plate 1, rabbit serum 10^-2, coat 0.5 μg MBPC.3/ml) was 968 and 981. For the same substance, the “optical density (OD) ratio 492/620 nm (×10^3)” value (New Zealand rabbits; plate 1, rabbit serum 10^-2, coat 1 μg MBPC.3/ml) was 1280 and 1267, the “optical density (OD) ratio 492/620 nm (×10^3)” value (New Zealand rabbits; plate 1, rabbit serum 10^-2, coat 5 μg MBPC.3/ml) was 2000 and the “optical density (OD) ratio 492/620 nm (×10^3)” value (New Zealand rabbits; plate 1, rabbit serum 10^-2, coat 10 μg MBPC.3/ml) was 2000. For the same substance, the “optical density (OD) ratio 492/620 nm (×10^3)” value (New Zealand rabbits; plate 1, rabbit serum 10^-3, coat 0.5 μg MBPC.3/ml) was 318 and 296, the “optical density (OD) ratio 492/620 nm (×10^3)” value (New Zealand rabbits; plate 1, rabbit serum 10^-3, coat 1 μg MBPC.3/ml) was 346 and 349 and the “optical density (OD) ratio 492/620 nm (×10^3)” value (New Zealand rabbits; plate 1, rabbit serum 10^-3, coat 5 μg MBPC.3/ml) was 2000. The “optical density (OD) ratio 492/620 nm (×10^3)” value (New Zealand rabbits; plate 1, rabbit serum 10^-3, coat 10 μg MBPC.3/ml) was 2000, the “optical density (OD) ratio 492/620 nm (×10^3)” value (New Zealand rabbits; plate 1, rabbit serum 10^-4, coat 0.5 μg MBPC.3/ml) was 145 and 140 and the “optical density (OD) ratio 492/620 nm (×10^3)” value (New Zealand rabbits; plate 1, rabbit serum 10^-4, coat 1 μg MBPC.3/ml) was 182 and 193. For the same substance, the “optical density (OD) ratio 492/620 nm (×10^3)” value (New Zealand rabbits; plate 1, rabbit serum 10^-4, coat 5 μg MBPC.3/ml) was 796 and 809, the “optical density (OD) ratio 492/620 nm (×10^3)” value (New Zealand rabbits; plate 1, rabbit serum 10^-4, coat 10 μg MBPC.3/ml) was 924 and 823 and the “optical density (OD) ratio 492/620 nm (×10^3)” value (New Zealand rabbits; plate 2, rabbit serum 10^-2, coat 5 μg MBPC.3/ml) was 2000. The “optical density (OD) ratio 492/620 nm (×10^3)” value (New Zealand rabbits; plate 2, rabbit serum 10^-2, coat 10 μg MBPC.3/ml) was 2000, the “optical density (OD) ratio 492/620 nm (×10^3)” value (New Zealand rabbits; plate 2, rabbit serum 10^-3, coat 0.5 μg MBPC.3/ml) was 197 and 181 and the “optical density (OD) ratio 492/620 nm (×10^3)” value (New Zealand rabbits; plate 2, rabbit serum 10^-3, coat 5 μg MBPC.3/ml) was 2000. For the same substance, the “optical density (OD) ratio 492/620 nm (×10^3)” value (New Zealand rabbits; plate 2, rabbit serum 10^-3, coat 10 μg MBPC.3/ml) was 2000, the “optical density (OD) ratio 492/620 nm (×10^3)” value (New Zealand rabbits; plate 2, rabbit serum 10^-4, coat 0.5 μg MBPC.3/ml) was 80 and 74 and the “optical density (OD) ratio 492/620 nm (×10^3)” value (New Zealand rabbits; plate 2, rabbit serum 10^-4, coat 1 μg MBPC.3/ml) was 113 and 84. The “optical density (OD) ratio 492/620 nm (×10^3)” value (New Zealand rabbits; plate 2, rabbit serum 10^-4, coat 5 μg MBPC.3/ml) was 678 and 626, the “optical density (OD) ratio 492/620 nm (×10^3)” value (New Zealand rabbits; plate 2, rabbit serum 10^-4, coat 10 μg MBPC.3/ml) was 734 and 689 and the “optical density (OD) ratio 492/620 nm (×10^3)” value (New Zealand rabbits; plate 3, rabbit serum 10^-2, coat 0.5 μg MBPC.3/ml) was 416 and 287. For the same substance, the “optical density (OD) ratio 492/620 nm (×10^3)” value (New Zealand rabbits; plate 3, rabbit serum 10^-2, coat 1 μg MBPC.3/ml) was 402 and 401, the “optical density (OD) ratio 492/620 nm (×10^3)” value (New Zealand rabbits; plate 3, rabbit serum 10^-2, coat 5 μg MBPC.3/ml) was 857 and 868 and the “optical density (OD) ratio 492/620 nm (×10^3)” value (New Zealand rabbits; plate 3, rabbit serum 10^-2, coat 10 μg MBPC.3/ml) was 818 and 953. The “optical density (OD) ratio 492/620 nm (×10^3)” value (New Zealand rabbits; plate 3, rabbit serum 10^-3, coat 0.5 μg MBPC.3/ml) was 148 and 155, the “optical density (OD) ratio 492/620 nm (×10^3)” value (New Zealand rabbits; plate 3, rabbit serum 10^-3, coat 1 μg MBPC.3/ml) was 168 and 150 and the “optical density (OD) ratio 492/620 nm (×10^3)” value (New Zealand rabbits; plate 3, rabbit serum 10^-3, coat 5 μg MBPC.3/ml) was 323 and 314. For the same substance, the “optical density (OD) ratio 492/620 nm (×10^3)” value (New Zealand rabbits; plate 3, rabbit serum 10^-3, coat 10 μg MBPC.3/ml) was 342 and 328, the “optical density (OD) ratio 492/620 nm (×10^3)” value (New Zealand rabbits; plate 3, rabbit serum 10^-4, coat 0.5 μg MBPC.3/ml) was 64 and 69 and the “optical density (OD) ratio 492/620 nm (×10^3)” value (New Zealand rabbits; plate 3, rabbit serum 10^-4, coat 1 μg MBPC.3/ml) was 72 and 89. For the same substance, the “optical density (OD) ratio 492/620 nm (×10^3)” value (New Zealand rabbits; plate 3, rabbit serum 10^-4, coat 5 μg MBPC.3/ml) was 170 and 169, the “optical density (OD) ratio 492/620 nm (×10^3)” value (New Zealand rabbits; plate 3, rabbit serum 10^-4, coat 10 μg MBPC.3/ml) was 191 and 184 and the “optical density (OD) ratio 492/620 nm (×10^3)” value (New Zealand rabbits; plate 4, rabbit serum 10^-2, coat 0.5 μg MBPC.3/ml) was 424 and 425. The “optical density (OD) ratio 492/620 nm (×10^3)” value (New Zealand rabbits; plate 4, rabbit serum 10^-2, coat 1 μg MBPC.3/ml) was 419 and 447, the “optical density (OD) ratio 492/620 nm (×10^3)” value (New Zealand rabbits; plate 4, rabbit serum 10^-2, coat 5 μg MBPC.3/ml) was 749 and 792 and the “optical density (OD) ratio 492/620 nm (×10^3)” value (New Zealand rabbits; plate 4, rabbit serum 10^-2, coat 10 μg MBPC.3/ml) was 849 and 843. For the same substance, the “optical density (OD) ratio 492/620 nm (×10^3)” value (New Zealand rabbits; plate 4, rabbit serum 10^-3, coat 0.5 μg MBPC.3/ml) was 163 and 154, the “optical density (OD) ratio 492/620 nm (×10^3)” value (New Zealand rabbits; plate 4, rabbit serum 10^-3, coat 1 μg MBPC.3/ml) was 221 and 151 and the “optical density (OD) ratio 492/620 nm (×10^3)” value (New Zealand rabbits; plate 4, rabbit serum 10^-3, coat 5 μg MBPC.3/ml) was 310 and 304. The “optical density (OD) ratio 492/620 nm (×10^3)” value (New Zealand rabbits; plate 4, rabbit serum 10^-3, coat 10 μg MBPC.3/ml) was 332 and 314 and the “titers of anti-GPGRAF antibodies” value (New Zealand rabbits; rabbits injected) was “did not produce significant titers”.
